Measurements from the supplement of paper PMC7877785.
± gives the uncertainty stated by the source.

Assay: self-splicing fitness, log relative to wild type (ln ratio); higher = more splicing; Tetrahymena group I intron in knt gene, E. coli kanamycin selection, DiMSum; sequences stand for … in CUCUCU…GGAGGGAAAAGUUAUCAGGCAUGCACCUGGUAGCUAGUCUUUAAACCAAUAGAUUGCAUCGGUUUAAAAGGCAAGACCGUCAAAUUGCGGGAAAGGGGUCAACAGCCGUUCAGUACCAAGUCUCAGGGGAAACUUUGAGAUGGCCUUGCAAAGGGUAUGGUAAUAAGCUGACGGACAUGGUCCUAACCACGCAGCCAAGUCCUAAGUCAACAGAUCUUCUGUUGAUAUGGAUGCAGUUCACAGACUAAAUGUCGGUCGGGGAAGAUGUAUUCUUCUCAUAAGAUAUAGUCGGACCUCUCCUUAAUGGGAGCUAGCGGAUGAAGUGAUGCAACACUGGAGCCGCUGGGAACUAAUUUGUAUGCGAAAGUAUAUUGAUUAGUUUUGGAGUACUCGUGGUCG
Outline: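 DiMSum derived fitness as the error-weighted combination of fold changes across replicates, kanamycin versus no kanamycin, normalised to wild type. E. coli BL21(DE3) held the library, which randomised all eight P1ex-region intron nucleotides within the knt kanamycin-resistance gene on pET-22b(+). Six replicate transformations grew overnight at 37°C or 30°C on LB agar with or without 25 μg/mL kanamycin, also containing 100 μg/mL carbenicillin, 50 μM IPTG and 0.2% rhamnose, and pooled colonies were amplicon-sequenced on an Illumina HiSeq 2500.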

| Sequence | self-splicing fitness (ln) (30 °C) | self-splicing fitness (ln) (37 °C) |
| --- | --- | --- |
| ACACAGCAAUAUUACGAUUG | -2.22 ± 0.084 | -0.711 ± 0.09 |
| ACACAGCAAUAUUACGCAAA | -3.2 ± 0.11 | -1.85 ± 0.092 |
| ACACAGCAAUAUUACGCCAA | -2.36 ± 0.11 | -2.54 ± 0.14 |
| ACACAGCAAUAUUACGCCAU | -3.18 ± 0.21 | -1.85 ± 0.15 |
| ACACAGCAAUAUUACGCCGG | -1.36 ± 0.09 | -0.466 ± 0.11 |
| ACACAGCAAUAUUACGCGCA | -0.103 ± 0.064 | 0.225 ± 0.079 |
| ACACAGCAAUAUUACGCUCC | -1.47 ± 0.078 | -0.566 ± 0.1 |
| ACACAGCAAUAUUACGCUUU | -2.75 ± 0.14 | -1.51 ± 0.098 |
| ACACAGCAAUAUUACGGCAC | -1.6 ± 0.066 | -0.725 ± 0.084 |
| ACACAGCAAUAUUACGGGUC | -4.34 ± 0.21 | -2.17 ± 0.13 |
| ACACAGCAAUAUUACGUAAG | -2.06 ± 0.062 | -0.736 ± 0.069 |
| ACACAGCAAUAUUACGUAGG | -2.48 ± 0.087 | -1.64 ± 0.09 |
| ACACAGCAAUAUUACGUGUU | -3.16 ± 0.073 | -3.62 ± 0.16 |
| ACACAGCAAUAUUACGUUAG | -3.46 ± 0.094 | -2.44 ± 0.1 |
| ACACAGCAAUAUUACGUUGG | -3 ± 0.089 | -1.2 ± 0.081 |
| ACACAGCAAUAUUACGUUGU | -2.31 ± 0.09 | -2.6 ± 0.14 |
| ACAGAGCAAUAUUACGAACC |  | -1.67 ± 0.49 |
| ACAGAGCAAUAUUACGAAUA | -3.45 ± 0.32 | -2.2 ± 0.35 |
| ACAGAGCAAUAUUACGACAG | -3.72 ± 0.31 | -1.95 ± 0.2 |
| ACAGAGCAAUAUUACGAUUA | -3.25 ± 0.23 | -2.38 ± 0.26 |
| ACAGAGCAAUAUUACGCAUG | -2.9 ± 0.12 | -1.95 ± 0.13 |
| ACAGAGCAAUAUUACGCCGG | -2.81 ± 0.25 | -2.4 ± 0.33 |
| ACAGAGCAAUAUUACGCUCA | -1.29 ± 0.2 | -1.26 ± 0.18 |
| ACAGAGCAAUAUUACGGCAC |  | -2.62 ± 0.44 |
| ACAGAGCAAUAUUACGGCGG | -3.41 ± 0.26 | -1.98 ± 0.24 |
| ACAGAGCAAUAUUACGGGUU | -2.43 ± 0.1 | -3.08 ± 0.18 |

| Sequence | self-splicing fitness (ln) (30 °C) | self-splicing fitness (ln) (37 °C) |
| --- | --- | --- |
| ACAGAGCAAUAUUACGGUAC | -3.57 ± 0.2 | -3.02 ± 0.25 |
| ACAGAGCAAUAUUACGUCGA | -3.1 ± 0.3 | -2.73 ± 0.34 |
| ACAGAGCAAUAUUACGUGAC | -3.76 ± 0.24 | -1.6 ± 0.17 |
| ACAGAGCAAUAUUACGUGUG | -2.65 ± 0.12 | -2.99 ± 0.14 |
| ACAGAGCAAUAUUACGUUAA | -3.15 ± 0.15 | -2.21 ± 0.21 |
| ACAGAGCAAUAUUACGUUAC | -3 ± 0.15 | -2.96 ± 0.25 |
| ACAUAGCAAUAUUACGAACG | -1.2 ± 0.17 | -0.114 ± 0.28 |
| ACAUAGCAAUAUUACGAAUA | -2.06 ± 0.28 | -0.539 ± 0.2 |
| ACAUAGCAAUAUUACGACCA | -0.589 ± 0.12 | 0.121 ± 0.14 |
| ACAUAGCAAUAUUACGACGC | -0.172 ± 0.071 | 0.801 ± 0.1 |
| ACAUAGCAAUAUUACGACUU | 0.0662 ± 0.074 | -0.163 ± 0.087 |
| ACAUAGCAAUAUUACGCAAG | -1.9 ± 0.12 | -1.25 ± 0.2 |
| ACAUAGCAAUAUUACGCCCU | -0.862 ± 0.083 | -0.134 ± 0.1 |
| ACAUAGCAAUAUUACGCCGA | -1.38 ± 0.19 | -0.864 ± 0.18 |
| ACAUAGCAAUAUUACGCGGA | -2.07 ± 0.14 | -0.505 ± 0.1 |
| ACAUAGCAAUAUUACGCUAA | -2.26 ± 0.23 | -0.742 ± 0.34 |
| ACAUAGCAAUAUUACGCUCU | -0.768 ± 0.084 | -0.2 ± 0.12 |
| ACAUAGCAAUAUUACGGCUU | -0.628 ± 0.09 | 0.133 ± 0.11 |
| ACAUAGCAAUAUUACGGGGU | -3.67 ± 0.17 | -1.81 ± 0.14 |
| ACAUAGCAAUAUUACGGUAA | -2.88 ± 0.15 | -1.52 ± 0.12 |
| ACAUAGCAAUAUUACGGUUG | -2.29 ± 0.079 | -1.95 ± 0.1 |
| ACAUAGCAAUAUUACGUAAG | -1.94 ± 0.085 | -1.6 ± 0.12 |
| ACAUAGCAAUAUUACGUCAA | -3.99 ± 0.21 | -1.63 ± 0.11 |
| ACAUAGCAAUAUUACGUCGG | -2.1 ± 0.099 | -1.16 ± 0.1 |
| ACAUAGCAAUAUUACGUCUC |  | -2.01 ± 0.25 |
| ACAUAGCAAUAUUACGUUCC | -2.65 ± 0.23 | -2.1 ± 0.34 |

| Sequence | self-splicing fitness (ln) (30 °C) | self-splicing fitness (ln) (37 °C) |
| --- | --- | --- |
| ACAUAGCAAUAUUACGUUGU | -3.63 ± 0.15 | -2.78 ± 0.2 |
| ACAUAGCAAUAUUACGUUUC | -3.55 ± 0.23 | -2.84 ± 0.3 |
| ACAUAGCAAUAUUACGUUUG | -2.83 ± 0.12 | -2.51 ± 0.15 |
| ACCAAGCAAUAUUACGAAUG | -3.18 ± 0.1 | -1.78 ± 0.1 |
| ACCAAGCAAUAUUACGACAC | -1.29 ± 0.093 | -1.3 ± 0.13 |
| ACCAAGCAAUAUUACGAUGA | -1.97 ± 0.1 | -1.36 ± 0.11 |
| ACCAAGCAAUAUUACGCAGG | -3.41 ± 0.13 | -2.59 ± 0.13 |
| ACCAAGCAAUAUUACGCCCU | -0.139 ± 0.091 | 0.663 ± 0.14 |
| ACCAAGCAAUAUUACGCCUC | -2.34 ± 0.22 | -0.371 ± 0.18 |
| ACCAAGCAAUAUUACGCUCA | -0.49 ± 0.098 | -0.055 ± 0.11 |
| ACCAAGCAAUAUUACGGCCG | -0.944 ± 0.086 | -0.259 ± 0.11 |
| ACCAAGCAAUAUUACGGCGA | -0.805 ± 0.064 | -0.254 ± 0.072 |
| ACCAAGCAAUAUUACGGCGG | -1.04 ± 0.083 | -0.733 ± 0.11 |
| ACCAAGCAAUAUUACGGGAG | -3.22 ± 0.13 | -2.66 ± 0.14 |
| ACCAAGCAAUAUUACGGGCG | -0.824 ± 0.048 | 0.12 ± 0.068 |
| ACCAAGCAAUAUUACGGGGG | -2.15 ± 0.096 | -2.29 ± 0.14 |
| ACCAAGCAAUAUUACGGUGG | -4.89 ± 0.21 | -2.53 ± 0.14 |
| ACCAAGCAAUAUUACGGUUA | -1.63 ± 0.1 | -1.68 ± 0.096 |
| ACCAAGCAAUAUUACGGUUC | -3.36 ± 0.15 | -3.46 ± 0.25 |
| ACCAAGCAAUAUUACGGUUU | -3.14 ± 0.11 | -2.08 ± 0.1 |
| ACCAAGCAAUAUUACGUAUC | -3.4 ± 0.1 | -2.34 ± 0.11 |
| ACCAAGCAAUAUUACGUAUU | -3.77 ± 0.14 | -2.07 ± 0.12 |
| ACCAAGCAAUAUUACGUUAA | -3.17 ± 0.18 | -2.46 ± 0.17 |
| ACCAAGCAAUAUUACGUUUG | -4.33 ± 0.16 | -2.43 ± 0.14 |
| ACCCAGCAAUAUUACGAAAA | -1.66 ± 0.097 | -1.83 ± 0.13 |
